Drawing on US20020132976A1, “Immunogenic peptides derived from prostate-specific antigen (PSA) and uses thereof” (priority 2000, published 2002), this text covers Fluorescence Index (FI) for 2 molecules.

The target in test [1] is membrane-bound HLA-A0201 molecule on T2 cells (human). Nature of the test: T2 cell HLA-A0201 stabilisation, 125.0 µM peptide, BB7.2 staining, flow cytometry. The conditions noted are these: remark: other sources report otherwise.
For test [2] the target is unchanged. Kind of test: T2 cell HLA-A0201 stabilisation, 125.0 µM peptide, BB7.2 staining, flow cytometry; analysis did not include the 3 hr de-stabilization step. The conditions noted are these: remark: other sources report otherwise. A general note: Flow cytometry measures light scatter and fluorescence of single cells or particles in a stream.

B1: CLP-316 (peptide)
peptide: KLQCVDLHV
With B1, the Fluorescence Index (FI) in test [1] amounted to 2.7.

B2: CLP-320 (peptide)
peptide: PLYDMSLLK
Molecule B2 showed a Fluorescence Index (FI) in test [2] of 0.2.
